Experimental data taken from US20230220038A1, “BRI2 BRICHOS DOMAIN FOR DELIVERY OF PROTEINS INTO CNS NEURONS” (ALPHABETA AB, priority 2021, published 2023).

How the values were obtained:
SH-SY5Y cells [1] = test: Cell uptake by western blot, SH-SY5Y; type: cell-based, human; conditions: 24 h incubation, western blot band intensities of cell lysate
hCMEC/D3 cells [2] = test: Cell uptake by western blot, hCMEC/D3; type: cell-based, human; conditions: hCMEC/D3, 2 h and 24 h, western blot of cell lysate
Procedure: Once confluent, the hCMEC/D3 cells were treated with 1 μM rh Bri2 BRICHOS monomers, oligomers or proSP-C monomers for 2 h and 24 h. […] Untreated cells were used as control. After the treatment, the cells were lysed as described for the HEK-293 cells.

SH-SY5Y cells [3] = system: SH-SY5Y cells
Procedure: Human neuroblastoma (SH-SY5Y) cell line (ATCC, Manassas, Va.) was grown in Dulbecco's Modified Eagle's Medium (DMEM, PAN-Biotech, Germany) with 4.5 g/L glucose, glutamine (2 mM) and 3.7 g/L NaHCO3, supplemented with 10% Fetal Bovine Serum (FBS, Sera Plus, PAN-Biotech, Germany) and penicillin-streptomycin (100 IU/ml, 100 μg/ml) in TC-coated T75 tissue culture flasks.
(§1) Cell viability was assessed by tetrazolium-based Thiazolyl Blue Tetrazolium Bromide (MTT) assay. For the MTT assay, 50 000 cells/cm^2 were seeded onto clear 96-well plates (TC, Cellstar, Greiner Bio-One, Austria) and grown until confluent, after which the cells were treated with the rh BRICHOS domains in 8 replicates for 24 h in a humidified atmosphere (5% CO2/95% air) at 37° C. Treated cells were incubated with 0.5 mg/ml MTT (Sigma-Aldrich, St. Louis, Mo.) solution in FBS-free cell media for 4 h in a humidified atmosphere (5% CO^2/95% air) at 37° C. The MTT solution was removed and the formazan crystals were dissolved in Dimethyl sulfoxide (DMSO, Sigma-Aldrich, St. Louis, Mo.) and incubated with shaking for 15 min. Absorbance was measured at 570 nm using a FLUOstar OPTIMA microplate reader (BMG Lab Tech, Germany). Untreated cells were used as positive control, and media without cells was used as a negative control. Also 2 μM Staurosporine from Streptomyces sp. (SP, Sigma-Aldrich, St. Louis, Mo.) was used as a negative control.

hCMEC/D3 cells [4] = system: hCMEC/D3 cells
Procedure: hCMEC/D3 cells (MilliporeSigma, Burlington, Mass.) were cultivated in EndoGRO-MV Complete Media (MilliporeSigma, Burlington, Mass.), supplemented with 1 ng/ml recombinant human fibroblast growth factor basic (FGF-2, Gibco, Invitrogen, Waltham, Mass.) and penicillin-streptomycin (100 IU/ml, 100 μg/ml, Gibco, Thermo Fisher Scientific, Waltham, Mass.) in T75 tissue culture flasks (TC-coated, DeltaLab, Spain) coated with 5-10 μg/cm^2 rat tail collagen type I (MilliporeSigma, Burlington, Mass.).
as §1

hCMEC/D3 monolayer = system: hCMEC/D3 monolayer
Procedure: For the preparation of the hCMEC/D3 cell monolayers, transwell ethylene terephthalate (PET) membrane inserts (24-well, clear, pore size 0.4 μm, CellQART, SABEU GmbH & Co. KG, Germany) were coated with rat tail type I collagen (150 μg/ml in 1× Dulbecco's Phosphate-buffered saline pH 7.4, 1×DPBS, Gibco, Thermo Fisher Scientific, Waltham, Mass.) for 2 h at 37° C. […] Media was changed every second day and the cell monolayer was established by day 6.
Experiments were conducted on culture day 6 by adding different BRICHOS protein constructs, or relevant controls to the apical side of the hCMEC/D3 monolayer. […] After the incubation, medium on the apical and basolateral sides of the monolayer was removed and analyzed by Western blotting and the band intensities measured by ImageJ. […] For mCherry and mCherry-Bri2 BRICHOS monomers, fluorescence intensity of the apical and basolateral medium was recorded at λex 570 nm and λem 610 nm, after which the cells were fixed and analyzed by fluorescence microscopy to analyse the uptake of mCherry or mCherry-Bri2 BRICHOS into cells.
FITC fluorescence was measured at λex 492 nm and λem 518 nm. Insulin permeability was determined by western blot and an anti-Insulin monoclonal primary antibody (Sigma, St. Louis, Mo.) at 1:1000 dilution. […]

wild type mice = conditions: mouse, in vivo, iv, 10 mg/kg
Procedure: Two different types of commercially available microbubbles, either Definity® (Lantheus Medical Imaging, MA, USA) or SonoVue® (Bracco, Milan, Italy) were administered at a dose of 5 μl/g body weight. For one part of the study (FIG. 3A), a total of […] mice were divided into four groups that received, respectively, i.v. injections of microbubbles and PBS (n=4), microbubbles and 1 (n=4), 10 (n=6) or 20 (n=4) mg/kg body weight of rh Bri2 BRICHOS-AU1 (SEQ ID NO: 11). In the second part of the study (FIG. 3B), a total of 3 mice were administered 20 mg/kg rh Bri2 BRICHOS-mCherry (SEQ ID NO: 12) (n=1) or microbubbles+20 mg/kg rh Bri2 BRICHOS-mCherry (n=2) intravenously. […]
96-well plates (Nunc MicroWell™) were coated with anti Bri2 BRICHOS capture antibody diluted in coating buffer (50 mM carbonate pH 9.6) and incubated overnight at 4° C. […] The reaction was stopped by adding stop solution for TMB substrates (Thermo Fisher) and absorbance was measured at 450 nm, using the values for brain homogenates from the non-treated mouse as blank. […]
Calculation of concentrations and total amounts of rh Bri2 BRICHOS-AU1 in each brain hemisphere was assessed by assuming a brain density of […], an average brain hemisphere weight of 225 mg and average of total protein in brain hemisphere homogenates of 25.6 mg.

Molecule	cell uptake, result in words (SH-SY5Y cells [1])	cell uptake, result in words (hCMEC/D3 cells [2])	toxicity / cell mitochondrial activity, result in words (SH-SY5Y cells [3])	toxicity / cell mitochondrial activity, result in words (hCMEC/D3 cells [4])	hCMEC/D3 monolayer permeability, result in words (hCMEC/D3 monolayer)	percent of the total amount administered detected in the brain (wild type mice) [%]
Bri2 BRICHOS monomers: recombinant human Bri2 BRICHOS (113-231) wild-type, monomeric species (SEQ ID NO: 2) (protein, listed as Homo sapiens) QTIEENIKIFEEEEVEFISVPVPEFADSDPANIVHDFNKKLTAYLDLNLDKCYVIPLNTSIVMPPRNLLELLINIKAGTYLPQSYLIHEHMVITDRIENIDHLGFFIYRLCHDKETYKL	linear uptake	taken up	no toxicity	no toxicity		
Bri2 BRICHOS oligomers: recombinant human Bri2 BRICHOS (113-231) wild-type, oligomeric species (protein, UniProt Q9Y287 113-231, looked up, fragment, oligomers, recombinant human Bri2 BRICHOS (113-231) wild-type, oligomeric species) QTIEENIKIFEEEEVEFISVPVPEFADSDPANIVHDFNKKLTAYLDLNLDKCYVIPLNTSIVMPPRNLLELLINIKAGTYLPQSYLIHEHMVITDRIENIDHLGFFIYRLCHDKETYKL	detected in the cell lysate to a lesser degree	seem not to be taken up	slight decrease in the cell mitochondrial activity	slight decrease in the cell mitochondrial activity		
Bri2 BRICHOS crude: recombinant human Bri2 BRICHOS (113-231) wild-type, crude solution (protein, UniProt Q9Y287 113-231, looked up, fragment) QTIEENIKIFEEEEVEFISVPVPEFADSDPANIVHDFNKKLTAYLDLNLDKCYVIPLNTSIVMPPRNLLELLINIKAGTYLPQSYLIHEHMVITDRIENIDHLGFFIYRLCHDKETYKL			slight decrease in the cell mitochondrial activity	slight decrease in the cell mitochondrial activity		
NT-Bri2 BRICHOS: rh fusion protein: NT* solubility tag followed by human Bri2 residues 113-231 (protein, UniProt Q9Y287 113-231, looked up, fragment, NT* spider silk solubility tag) QTIEENIKIFEEEEVEFISVPVPEFADSDPANIVHDFNKKLTAYLDLNLDKCYVIPLNTSIVMPPRNLLELLINIKAGTYLPQSYLIHEHMVITDRIENIDHLGFFIYRLCHDKETYKL					only the monomers show permeability	
rh Bri2 BRICHOS-AU1: Rh Bri2 BRICHOS domain, residues 113-231 of Bri2, linked to an AU1 tag at the C-terminal end (SEQ ID NO: 11) (protein, listed as Homo sapiens, DOMAIN 3..121 Rh Bri2 BRICHOS domain; DOMAIN 122..127 AU1 tag) GSQTIEENIKIFEEEEVEFISVPVPEFADSDPANIVHDFNKKLTAYLDLNLDKCYVIPLNTSIVMPPRNLLELLINIKAGTYLPQSYLIHEHMVITDRIENIDHLGFFIYRLCHDKETYKLDTYRYI						1
